{"source": "paper PMC3760383", "experiment_in_all_cases": "EMSA", "key": {"[1]": {"target": "p53 (82-360);IFI16 HIN-B (Homo sapiens;Homo sapiens, UniProt P04637;Q16666-2 82-360;515-710, |)"}, "[2]": {"target": "p53 (82-393);IFI16 HIN-A (Homo sapiens;Homo sapiens, UniProt P04637;Q16666-2 82-393;192-393, |)"}, "[3]": {"target": "IFI16 HIN-A (Homo sapiens, UniProt Q16666-2 192-393)", "sequence (Q16666 192-393)": "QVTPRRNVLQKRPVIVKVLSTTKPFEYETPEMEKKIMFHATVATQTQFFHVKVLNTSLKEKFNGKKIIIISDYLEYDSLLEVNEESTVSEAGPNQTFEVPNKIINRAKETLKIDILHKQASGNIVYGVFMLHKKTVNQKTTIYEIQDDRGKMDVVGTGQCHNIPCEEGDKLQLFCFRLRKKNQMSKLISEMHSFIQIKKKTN"}}, "data": [{"binder": "p53 consensus 20-mer (dsDNA) DNA 1: GGACATGCCCGGGCATGTCC DNA 2: GGACATGCCCGGGCATGTCC", "values": [{"measurement": "binding result", "setting": "[1]", "value": "binds"}, {"measurement": "binding result", "setting": "[2]", "value": "binds"}, {"measurement": "binding result", "setting": "[3]", "value": "no binding"}]}]}
